This note sets out measurements from patent US7595158B2, “Bcl2L12 polypeptide activators and inhibitors” (Dana-Farber Cancer Institute, Inc., priority 2003, dated 2009).

Test [1] has as its system Ink4a-/-/Arf-/- astrocytes. Briefly: Growth of transduced Ink4a-/-/Arf-/- astrocytes under normal and low-serum conditions. Type of test: cell-based, mouse. Particulars: over-expression, 10% FBS, vs vector only. From the text: The Bcl2L12-V5, R-RAS, and IRF3 nucleic acid sequences were cloned into expression vectors. Controls included expression vectors containing EGFR or Bcl2 nucleic acid sequences. The encoded polypeptides were expressed in primary astrocytes and tested for cell growth, transformation, and apoptosis activities. Primary astrocytes deficient for Ink4a/Arf (e.g., Ink4a^−/−/Arf^−/− astrocytes) were used given the prominence of this tumor suppressor lesion in advanced human gliomas. The following was performed to assess growth characteristics under normal growth conditions. Mouse Ink4a^−/−/Arf^−/− astrocytes were retro-virally transduced with pBabe vector alone; Bcl2L12-V5 nucleic acid; R-RAS nucleic acid; IRF3 nucleic acid; EGFR* nucleic acid; or Bcl2 nucleic acid. After retro-viral infection, transduced mouse Ink4a^−/−/Arf^−/− astrocytes were subjected to puromycin (2 μg/mL) selection for four days and plated at a density of 1×10^5 cells/10 cm dish using 10% FBS-DMEM medium. All transduced Ink4a^−/−/Arf^−/− astrocytes were counted each day for five days to determine cell numbers (mean±S.D.; three independent experiments with each being performed in triplicate).
The following was performed to assess growth characteristics under low-serum growth conditions. Retro-virally transduced mouse Ink4a^−/−/Arf^−/− astrocytes (1×10^6 cells/10 cm dish) were allowed to attach onto plates in 10% FBS-DMEM medium for five hours. After five hours, the medium was changed to 0.1% FBS-DMEM, and the cells were allowed to grow for three days. After three days in 0.1% FBS, the cells were counted to determine cell numbers (mean±S.D.; three independent experiments with each being performed in triplicate). The number of Ink4a^−/−/Arf^−/− astrocytes infected with pBabe-vector was set to 1.0.

Test [2] relates to Ink4a-/-/Arf-/- astrocytes. Briefly: Annexin V staining of STS-treated Ink4a/Arf deficient astrocytes (FACS). Type of test: cell-based, mouse. Particulars: 100 nM staurosporine one day; control cultures about 17-22 percent. Here is the method: The following experiments were performed to determine whether the Bcl2L12 polypeptide influenced cell survival or apoptosis. Ink4a^−/−/Arf^−/− astrocytes retro-virally infected with vector alone (pBabe) or vector containing Bcl2 nucleic acid, Bcl2L12-V5 nucleic acid, R-RAS nucleic acid, or IRF3 nucleic acid were […] After this one day incubation, the cells were stained with annexin V (Roche). Annexin V-positive cells were determined by FACScan analysis (mean±S.D.; three independent experiments with each being performed in triplicate).
After STS treatment, the cells were analyzed for apoptosis by assessing annexin V binding and DNA fragmentation using a FACS based analysis.

For test [3], the system named is Ink4a/Arf deficient embryonic fibroblasts. Briefly: Colony formation of Ink4a/Arf deficient embryonic fibroblasts. Type of test: cell-based. Particulars: about 300 cells per 6 well plate; vector only about 13. Here is the method: In addition, Ink4a/Arf deficient embryonic fibroblasts were transfected with vector only or a vector encoding a Bcl2L12 polypeptide or Bcl2 polypeptide. Once the cells were transfected, the number of colonies formed in cultures (about 300 cells per 6 well plate) was determined. Expression of Bcl2L12 polypeptide promoted growth of Ink4a/Arf deficient embryonic fibroblasts. […] In a similar experiment, Ink4a/Arf deficient embryonic fibroblasts were co-transfected with a vector encoding H-RasV12 and either a vector only, vector encoding Bcl2L12 polypeptide, or a vector encoding Bcl2 polypeptide. Once the cells were transfected, the number of foci formed per transfection was determined. Expression of Bcl2L12 polypeptide or Bcl2 polypeptide in combination with H-RasV12 expression promoted growth of Ink4a/Arf deficient embryonic fibroblasts (about 1.5 to 2 fold more foci per transfection for cells expressing Bcl2L12 polypeptide or Bcl2 polypeptide compared to control pBabe cells).

The subject of test [4] is Ink4a-/-/Arf-/- mouse embryo fibroblasts. Briefly: Focus formation in cooperation with activated H-Ras in Ink4a-/-/Arf-/- mouse embryo fibroblasts. Type of test: cell-based. As to conditions: cotransfected with H-Ras G12V, vs pBabe. As to the method: The oncogenic potential of these genes was determined directly through their capacity to cooperate with activated H-RAS to effect the malignant transformation of primary Ink4a^−/−/Arf^−/− cells. Briefly, Ink4a^−/−/Arf^−/− mouse embryo fibroblasts (MEFs) were seeded at 8×10^5 cells/10 cm dish and grown in 10% FBS-DMEM for one day and then cotransfected with 1.5 μg of activated H-Ras^G12V and 1.5 μg of either pBabe, Bcl2, Bcl2L12-V5, R-RAS, or IRF3 nucleic acid using Lipopectamine-plus reagent (Invitrogen). One day after cotransfection, each Ink4a^−/−/ARF^−/− MEF was splitted 1:3 ratio and refed with 10% FBS-DMEM every 3-4 day for ten days. After staining cells with crystal violet solution, foci were counted to determine transformation efficiency (mean±S.D.; three independent experiments with each being done in duplicate). The numbers of foci from cells cotransfected with H-Ras^G12V and pBabe vector were set to 100%.
In addition, Ink4a/Arf deficient embryonic fibroblasts were transfected with vector only or a vector encoding a Bcl2L12 polypeptide or Bcl2 polypeptide. Once the cells were transfected, the number of colonies formed in cultures (about 300 cells per 6 well plate) was determined. Expression of Bcl2L12 polypeptide promoted growth of Ink4a/Arf deficient embryonic fibroblasts. […] Once the cells were transfected, the number of foci formed per transfection was determined. […]

A further test concerns the target T1, caspase-9 (Homo sapiens, UniProt P55211).
T1 construct: endogenous in cells; host or cells: 293T
T1 sequence (P55211 1-416): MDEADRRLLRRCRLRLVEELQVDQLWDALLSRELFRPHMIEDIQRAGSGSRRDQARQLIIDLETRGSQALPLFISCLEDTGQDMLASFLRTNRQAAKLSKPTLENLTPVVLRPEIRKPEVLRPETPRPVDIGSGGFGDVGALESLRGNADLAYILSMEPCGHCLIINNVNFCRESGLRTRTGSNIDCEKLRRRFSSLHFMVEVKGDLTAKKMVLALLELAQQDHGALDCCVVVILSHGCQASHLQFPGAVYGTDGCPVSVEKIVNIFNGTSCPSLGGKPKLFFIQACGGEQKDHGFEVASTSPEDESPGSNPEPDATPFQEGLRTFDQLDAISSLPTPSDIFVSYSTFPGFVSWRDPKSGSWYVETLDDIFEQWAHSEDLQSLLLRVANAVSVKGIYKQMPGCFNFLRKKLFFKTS
Description: Caspase-9 in vitro cleavage and LEHDase activity assay with 293T cells. Type of test: cell-based. As to conditions: V5 tagged constructs; vector only about 420 RFUs. From the text: To determine if Bcl2L12 polypeptides could-regulate-the activity of caspase-9, a cell-free system was used in which exogenously added dATP and cytochrome c induced the activation of [^35S] labeled in vitro translated caspase-9. […] To confirm the inhibitory effect of Bcl2L12 polypeptides on caspase-9 maturation, 293T cells ectopically expressing Bcl2L12-V5 polypeptides where either subjected to an in vitro cleavage assay or to an activity assay using the caspase-9 specific fluorogenic peptide LEHD.
In addition, vectors encoding V5 tagged wild-type human Bcl2L12 polypeptide (WT; human amino acid sequence 1-334) and three V5 tagged truncation mutants of human Bcl2L12 (Bcl2L12-ΔBH2 polypeptide, human amino acid sequence 1-310; Bcl2L12-ΔBH2ΔP-r polypeptide, human amino acid sequence 1-267; and Bcl2L12-ΔBH2ΔP-rΔIHD polypeptide, human amino acid sequence 1-167) were made (FIG. 4A). These vectors expressed the appropriately sized polypeptides when translated in vitro or when expressed in 293T cells.

For the molecule “Bcl2: Bcl2 polypeptide expressed from control expression vector [reference compound]”, the “growth / proliferation under normal growth conditions” value (shortened to “growth / proliferation”) in test [1] is recorded as “failed to exhibit a pro-proliferative response”. Further, the annexin-V positive cells in test [2] was 2-3%. The number of colonies entry in test [3] is “about 10 colonies”.

B1: R-RAS: R-RAS polypeptide over-expressed from expression vector; candidate gene of the 19q13.3 amplicon (protein, UniProt P10301 1-215, looked up)
Ras-related protein R-Ras: MSSGAASGTGRGRPRGGGPGPGDPPPSETHKLVVVGGGGVGKSALTIQFIQSYFVSDYDPTIEDSYTKICSVDGIPARLDILDTAGQEEFGAMREQYMRAGHGFLLVFAINDRQSFNEVGKLFTQILRVKDRDDFPVVLVGNKADLESQRQVPRSEASAFGASHHVAYFEASAKLRLNVDEAFEQLVRAVRKYQEQELPPSPPSAPRKKGGGCPC
For the molecule B1, the “growth / proliferation” value in test [1] was “moderate increase in proliferation”. For the same molecule, in test [2], the annexin-V positive cells is 10-20%. Also, in test [4], the “RAS-induced focus formation increase” value is on record as “did not exhibit any cooperative activity”.

B2: Bcl2L12-ΔBH2ΔP-rΔIHD: V5 tagged truncation mutant of human Bcl2L12, human amino acid sequence 1-167 (protein)
chain: MGRPAGLFPPLCPFLGFRPEACWERHMQIERAPSVPPFLRWAGYRPGPVRRRGKVELIKFVRVQWRRPQVEWRRRRWGPGPGASMAGSEELGLREDTLRVLAAFLRRGEAAGSPVPTPPRSPAQEEPTDFLSRLRRCLPCSLGRGAAPSESPRPCSLPIRPCYGLEP
modifications: left off: small tags and cut ends
For the molecule B2, in the test with caspase-9, the caspase-9 activity entry was “about 160 RFUs”.

B3: Bcl2L12-ΔBH2ΔP-r: V5 tagged truncation mutant of human Bcl2L12, human amino acid sequence 1-267 (protein)
chain: MGRPAGLFPPLCPFLGFRPEACWERHMQIERAPSVPPFLRWAGYRPGPVRRRGKVELIKFVRVQWRRPQVEWRRRRWGPGPGASMAGSEELGLREDTLRVLAAFLRRGEAAGSPVPTPPRSPAQEEPTDFLSRLRRCLPCSLGRGAAPSESPRPCSLPIRPCYGLEPGPATPDFYALVAQRLEQLVQEQLKSPPSPELQGPPSTEKEAILRRLVALLEEEAEVINQKLASDPALRSKLVRLSSDSFARLVELFCSRDDSSRPSRACP
modifications: left off: small tags and cut ends
Consider B3, for which the caspase-9 activity result with caspase-9 is “about 130 RFUs”.

B4: IRF3: IRF3 polypeptide expressed from expression vector; candidate gene of the 19q13.3 amplicon (protein, UniProt Q14653 1-427, looked up)
Interferon regulatory factor 3: MGTPKPRILPWLVSQLDLGQLEGVAWVNKSRTRFRIPWKHGLRQDAQQEDFGIFQAWAEATGAYVPGRDKPDLPTWKRNFRSALNRKEGLRLAEDRSKDPHDPHKIYEFVNSGVGDFSQPDTSPDTNGGGSTSDTQEDILDELLGNMVLAPLPDPGPPSLAVAPEPCPQPLRSPSLDNPTPFPNLGPSENPLKRLLVPGEEWEFEVTAFYRGRQVFQQTISCPEGLRLVGSEVGDRTLPGWPVTLPDPGMSLTDRGVMSYVRHVLSCLGGGLALWRAGQWLWAQRLGHCHTYWAVSEELLPNSGHGPDGEVPKDKEGGVFDLGPFIVDLITFTEGSGRSPRYALWFCVGESWPQDQPWTKRLVMVKVVPTCLRALVEMARVGGASSLENTVDLHISNSHPLSLTSDQYKAYLQDLVEGMDFQGPGES
As for B4, the “growth / proliferation” value in test [1] was “failed to exhibit a pro-proliferative response”. For the same molecule, the annexin-V positive cells in test [2] is listed as 14-16%. Further, the “RAS-induced focus formation increase” value in test [4] is “did not exhibit any cooperative activity”.
